In this assay the target is T1, Rat ANGPTL4(24-405)-FLAG-His6-Avi (rat, UniProt Q6TMA8 24-405, biotin on the C-terminal Avi tag (BirA) where the protein is immobilised).
T1 sequence: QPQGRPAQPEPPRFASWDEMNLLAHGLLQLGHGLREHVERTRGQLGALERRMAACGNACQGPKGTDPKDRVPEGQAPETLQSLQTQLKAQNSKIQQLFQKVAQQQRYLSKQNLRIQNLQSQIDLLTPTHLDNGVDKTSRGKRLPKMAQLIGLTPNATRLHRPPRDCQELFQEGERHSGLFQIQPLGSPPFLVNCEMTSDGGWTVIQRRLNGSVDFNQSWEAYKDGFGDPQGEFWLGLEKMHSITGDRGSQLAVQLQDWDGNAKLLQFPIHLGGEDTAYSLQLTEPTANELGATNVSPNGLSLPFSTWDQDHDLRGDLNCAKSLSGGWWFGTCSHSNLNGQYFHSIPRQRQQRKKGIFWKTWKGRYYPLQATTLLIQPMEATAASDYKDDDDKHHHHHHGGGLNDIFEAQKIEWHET
Description: Octet (ForteBio) kinetics, biotinylated antigen on streptavidin sensor, IgG in solution; Octet kinetics, rat ANGPTL4 on the sensor, antibody up to 25 nM; run 1.

The source of these data is US20220213181A1 (Novartis, published 2022).

In general, Kd refers to the concentration at which binding is half-saturated. A word on the koff: it is the first-order rate constant of dissociation. Lower therefore signals slow dissociation. For orientation: kon means a measure of how fast the partners come together. Low readings indicate slow association, high ones fast association.

B1: NEG276-LALA (antibody, human IgG1, kappa, L234A L235A)
heavy: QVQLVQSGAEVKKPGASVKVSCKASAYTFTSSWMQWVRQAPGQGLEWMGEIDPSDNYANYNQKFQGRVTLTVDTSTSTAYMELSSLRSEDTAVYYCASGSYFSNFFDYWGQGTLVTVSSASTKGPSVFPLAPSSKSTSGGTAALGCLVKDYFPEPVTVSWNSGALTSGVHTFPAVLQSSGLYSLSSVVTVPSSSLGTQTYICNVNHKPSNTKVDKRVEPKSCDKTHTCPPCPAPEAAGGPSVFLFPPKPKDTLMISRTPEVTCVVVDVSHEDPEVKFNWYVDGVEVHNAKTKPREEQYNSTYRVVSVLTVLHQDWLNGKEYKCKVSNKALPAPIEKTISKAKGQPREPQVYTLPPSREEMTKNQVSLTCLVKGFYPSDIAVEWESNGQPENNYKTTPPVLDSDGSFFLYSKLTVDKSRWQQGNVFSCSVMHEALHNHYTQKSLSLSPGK
light: EIVMTQSPATLSVSPGERATLSCKASQDIGSNLNWLQQKPGQAPRRLIYAVSNRGPGIPARFSGSRSGSEYTLTISSLQSEDFAVYYCLQYASSPWTFGQGTKVEIKRTVAAPSVFIFPPSDEQLKSGTASVVCLLNNFYPREAKVQWKVDNALQSGNSQESVTEQDSKDSTYSLSSTLTLSKADYEKHKVYACEVTHQGLSSPVTKSFNRGEC
In turn, B1 registered a Kd of 7.47 nM, a koff of 0.0012 s⁻¹ and a kon of 160000 M⁻¹ s⁻¹.
